The assay can be described thus: In vitro glucosylation of oripavine and nororipavine by purified UGTs. The class given is biochemical. The following applies: for preference for nororipavine glucosylation compared to oripavine glucosylation: purified UGT, 500 μM substrate, overnight at 30° C., HPLC. The procedure:
Glucosylation samples of a 20 μL total reaction volume for each UGT to be tested were prepared in 96-well microtiter plates as follows:
The microtiter plate was sealed with an adhesive seal, spun shortly and the glucosylation samples were incubated overnight at 30° C. After incubation, glucosylation reaction was terminated by adding 3 volumes (60 μL) of ice-cold 100% methanol the reaction volume and mixing well, followed by centrifugation of the plate at 3000 rpm for 5 min at 4° C. and analysis by HPLC.
The 72UGTs of Table 5 were tested in vitro to using the test setup of example 3 identify those having having specificity toward nororipavine.

Setting [1] is: 72UGTs, test setup of example 3, FIG. 8.

B1: Qs72S_1: subfamily 72 UGT (glycosyltransferase) from Quercus suber (protein)
chain: MEQKPHIALLPSPGMGHLIPLVEFAKQFVLHHDFHITCIIPVLGSPSKAMKAVLQALPTTIDHVFLPPVILEEEEIKGLKFEVQTILTLTRSLPPLREVLKTTRFSAFVVDPFGIDALDIAKELNISPYIFFPSNAFALSLIFHLPKLDETVSCEYRDLPEPLKLPGCIPIHGRDLIEPVQDRTSELYKMFLRNAKRFRLAEGIIVNTFMELEGSAIKALLDEEAKNLPLYPIGPIQSGSSNLQVDKSVSDCLRWLDNQPHGSVLFVCFGSGGTLSYDQTNELALGLELSGQKFLWVVRTPNNESADAAYLSDQILDNNPLDFLPKGFVERTEGQGLAVPSWAPQAQVLSHGSTGGFLTHCGWNSTLESIMQGIPLIAWPLYAEQKMNAPLLAEDLKVALRPKTNKSGLIDQEEIAKVVKGLMIGEEGKKVYNRMKDIKMAAEKALSADGSSTKALSELASQWKNHPGF
modifications: Quercus suber
notes: subfamily 72 UGT (glycosyltransferase) from Quercus suber
On to B1, for which the “preference for nororipavine glucosylation compared to oripavine glucosylation” value (shortened to “preference … compared to oripavine glucosylation”) was “particularly strong preference for Nororipavine glucosylation”. Further, under setting [1], the glucosylation activity result was “high activity” and the “specificity for nororipavine compared to oripavine” value (shortened to “specificity … compared to oripavine”) is “particularly high specificity”.

B2: XP_023905565: subfamily 72 UGT, sequence homolog of Qs72S_1 (protein)
chain: MEQKPHIALLPSPGMGHLVPLVELAKLLLLHHDFHITCIIPVLGSPSKAMKAVLQALPTSIDHVFLPPVILEEEEIKGLKLEVQAMLTLTRSLPPLRDVLKSTRFSAFVVDPFGIDALDIAKELNISPYIFFPSNAFALSLVLHLPKLDETVSCEYRDLPEPIKLPGCITIHGRDLLEPVQDRTSELYKMFLSNTKRYRLAEGIIVNTFMELEGSAIKALLEEEAKNLPLFPVGPIQSGSSNQVDKSESDCLRWLDNQPHGSVLFVCFGSGGTLSYDQTNELALGLELSGQKFIWVVRTPNNESADATYLSDQTLGNNPLAFLPKGFVERTKGQGLVVPFWAPQAQVLSHGSTGGFLTHCGWNSTLESIMQGIPLIVWPLFAEQKMNAALLAEDLKVALRPKTNKNGRIDREEITKVVKGLMVGEEGKKVRNRMKDIKIAAEKALSADGSSTKALSKLATQWKNHSDF
modifications: Quercus suber
On to B2, for which the “preference … compared to oripavine glucosylation” value is listed as “particularly strong preference for Nororipavine glucosylation”.

B3: XP_030967178: subfamily 72 UGT, sequence homolog of Qs72S_1 (protein, listed as Quercus lobata)
chain: MEQKPHIALLPSPGMGHLIPLVELAKLLLLHHDFHITCIIPVLGSPSKAMKAVLQALPTSIDNVFLPPVILEEEEIKGLKLEVQAMLTLTRSLPPLRDVLKSTRFSAFVVDPFGIDALDIAKELNISPYIFFSSNAFALSLVLHLPKLDETVPCEYRDLPEPVKLPGCIPIHGRDLIEPVQDRTSELYKMFLTNAKRYRLAEGIIVNTFMELEGSAIKAMLEEEAKNLPLFPVGPIQSGSSNQVDKLESDCLSWLDNQPHGSVLFVCFGSGGTLSYEQTNELALGLELSGQKFIWVVRTPNNESADATYLSDQNLGDNPLAFLPKGFVERTKGQGLVVPLWAPQAQVLSHGSTGGFLTHCGWNSTLESIMQGIPLIVWPLFAEQKMNAALLAEDLKVALRPKTDKNGLIDREEIAKVVKGLMVGEEGKKVHNRMEDIKIAAEKALSADGSSTKALSKLATQWKNHPDF
For the molecule B3, the “preference … compared to oripavine glucosylation” value is listed as “particularly strong preference for Nororipavine glucosylation”. For the same molecule, the “specificity … compared to oripavine” value under setting [1] was “particularly high specificity”.

B4: SrUGT71E1: subfamily 71 UGT from Stevia rebaudiana (protein, listed as Stevia rebaudiana)
chain: MSTSELVFIPSPGAGHLPPTVELAKLLLHRDQRLSVTIIVMNLWLGPKHNTEARPCVPSLRFVDIPCDESTMALISPNTFISAFVEHHKPRVRDIVRGIIESDSVRLAGFVLDMFCMPMSDVANEFGVPSYNYFTSGAATLGLMFHLQWKRDHEGYDATELKNSDTELSVPSYVNPVPAKVLPEVVLDKEGGSKMFLDLAERIRESKGIIVNSCQAIERHALEYLSSNNNGIPPVFPVGPILNLENKKDDAKTDEIMRWLNEQPESSVVFLCFGSMGSFNEKQVKEIAVAIERSGHRFLWSLRRPTPKEKIEFPKEYENLEEVLPEGFLKRTSSIGKVIGWAPQMAVLSHPSVGGFVSHCGWNSTLESMWCGVPMAAWPLYAEQTLNAFLLVVELGLAAEIRMDYRTDTKAGYDGGMEVTVEEIEDGIRKLMSDGEIRNKVKDVKEKSRAAVVEGGSSYASIGKFIEHVSNVTI
For B4, the “preference … compared to oripavine glucosylation” value is “preference for glucosylation of nororipavine”.

B5: XP_023876189: subfamily 72 UGT, sequence homolog of Qs72S_1 (protein)
chain: MEQKPHIAILPSPGMGHLIPFVEFAKLLLLHHDFHITCIIPTIGSPSKAMREVLQALPTSIDHVFLPPVSLEELGGVKPGIQITLTMIRSLPPLREVLTSLVATTRLVALVVDLFGTDALDVAKELNVSPYIFYPTNAMVVSLVLHLPKLDETVSCEYRDLPEPVKLPGCVPIHGRDLLDPIQDRTTELYKLFLRGAKWLRLVEGIIVNTFMELDGNVIKALEDEEAKSGTIYTIGPIIQSSSTKHVEGSDGLRWLDNQPRGSVLFVCFGSGGTLSYDQMKELALGLELSKQKFLWVVRSPNNELAQAAYFSDQTLDNNPLSFLPVGFIERTKEQGLVVPSWAPQAQVLSHDSTGGFLSHCGWNSTLESIMQGIPLIAWPLFAEQRMNALLLTEDLKVALRPKANEKNLVDREEIAKVIKSLMVGEDGKKIHSRMKDLKIAAEKALSPNGPSTKALADLASHWTNQSNS
modifications: Quercus suber
As for B5, the “preference … compared to oripavine glucosylation” value was “particularly strong preference for Nororipavine glucosylation”. Moreover, the “specificity … compared to oripavine” value under setting [1] was “particularly high specificity”.

B6: PWA37695: subfamily 73 UGT (protein, listed as Artemisia annua)
chain: MVAPSTELHFVMFPLMAQGHIVPMVDIARILAEKGATVTIFATPLVANRFRPVISRAIEAKLKIQILELELQVAKVGLPEGCQSFEKLPSSDSSAKLFAAMDLLEQPAEDLVRKLSPPPDCIISDFLFPWTTDMARRFNIPRLVFHGPGCFWLVCMHAVFSSDKFKTIKLEEKFMLPGLPDQVEVTKLQITGTKEIKPEQMGFWVRATEAEKAAYGTVVHTFYELEPEYVKEYSKVKDTKVWCIGPVALSNKANLDIAERGNKAAINEHDCLKWLDEKEPGSVFYVCLGSITRLSTEQAIEIALGLESTNQPFLWFLRNKTQELEKWFSEVGFEERVKDRGLIVHGWAPQILILSHCAVGGFLTHCGWNSTLEGVSFGVPMVTWPHFADQFLNETFIVEILKIGVRIGVDIPELYGEEDKLEALVKKEDVKRAVECLMDKEDKEAKQRRKRARKLAEMAKRAMAEGGSSYVNVSSLIQDITEFRNTQRLNRLHV
For B6, the “preference … compared to oripavine glucosylation” value is given as “very strong preference for oripavine glucosylation”.

B7: KAF3968554: subfamily 72 UGT, sequence homolog of Qs72S_1 (protein, listed as Castanea mollissima)
chain: MEQKPHIGILPSPGMGHLIPLVEFAKLLVHHHDFNITCIIPVLGSPSKAMKAVLHALPTTIDHVFLPPVILEEEEMKGPRFEVQTILTLTRSLPPLRDVLKSTRFSAFVVDPFGIDALDIAKELNISPYIFFPTNAFALSLIFHLPKLDETVSCEYRDLPEPLKLPGCIPIHGRDLAEPFQNRTSESYKMFLRIAKRFRLAEGIIVNTFMGLEGSAIKALLEEEAKNLPLYPVGPIQSGSSNQVEESDCLRWLGNQPHGSVLFVCFGSGGTLSYDQTNELALGLELSGQKFLWVVRTPNNESADAAYLSDQTLYNNPLAFLPKGFVERTEGQGLAVPSWAPQAQVLSHGSTGGFLTHCGWNSSLESIMQGIPLIAWPLYAEQKMNAVLLAEDLKVALRPKTNKNGLIDREEIAKVVKGLMDGEEGKKVRNRMKDIKIAAEKALNVDGSSTKTLSKLASKWKNHSSF
B7: the “preference … compared to oripavine glucosylation” value is given as “particularly strong preference for Nororipavine glucosylation”.

For the origin of these results see patent publication US20240150805A1, “Glycosylated Opioids” (River Stone Biotech ApS, priority 2021, published 2024).
